*1 amine or outer side, *2 acyl side, *3 side chain or, on linkers, in order; H or OH if unused. Bridges are numbered along the chain shown (N, C = ends). Where no end group is shown, it is not given here. TBMB = c1c(C[*:1])cc(C[*:3])cc1C[*:2]
Assays:
[1] = target: T1, human carbonic anhydrase IX (CAIX) (human, UniProt Q16790 38-414); assay: competition fluorescence polarisation, tracer A-(SEQ ID NO:1)-A-Sar6-K(FI); n = 1
[2] = target: T1, human carbonic anhydrase IX (CAIX); assay: competition fluorescence polarisation, tracer A-(SEQ ID NO:1)-A-Sar6-K(FI)
[3] = target: T1, human carbonic anhydrase IX (CAIX); assay: cell-based or functional assay

Binder | Ki [1] [nM] | Ki [2] [nM] | Enzyme IC50 [3] [nM]
ACRECWVDGWVECA (linker 2-5-13 via TBMB, Bicyclic peptide on TBMB scaffold) [61-01-08-N001] | 5.6 | – | –
ACTECWVDGWVPCA (linker 2-5-13 via TBMB, Bicyclic peptide on TBMB scaffold) [61-01-02-N001] | – | 7.13 | 815
ACLECWVDGWVPCA (linker 2-5-13 via TBMB, Bicyclic peptide on TBMB scaffold) [61-01-04-N001] | – | 5.77 | 855
ACEECWVDGWVPCA (linker 2-5-13 via TBMB, Bicyclic peptide on TBMB scaffold) [61-01-05-N001] | 12.2 | – | –
ACTECWIDGWVPCA (linker 2-5-13 via TBMB, Bicyclic peptide on TBMB scaffold) [61-01-07-N001] | – | 7.9 | –
ACSECWVDGWVSCA (linker 2-5-13 via TBMB, Bicyclic peptide on TBMB scaffold) [61-01-03-N001] | – | 22.7 | –
ACGECWVDGWVSCA (linker 2-5-13 via TBMB, Bicyclic peptide on TBMB scaffold) [61-01-09-N001] | 39.8 | – | –
ACWWCEDITGRPCA (linker 2-5-13 via TBMB, Bicyclic peptide on TBMB scaffold) [61-18-N001] | 312 | – | –
ACGECWADGWVPCA (linker 2-5-13 via TBMB, Bicyclic peptide on TBMB scaffold) [61-01-01-N001] | – | 81.5 | –
